In patent US20210380707A1:

Tests used:
[1] = biological target: recombinant human CD70 tagged with mouse IgG2a Fc (AcroBiosystems Cat#CDL-H525a) (human; mouse) (UniProt P32970); experiment: indirect ELISA, hybridoma supernatant, coated antigen A at 1 µg/ml
[2] = biological target: Mouse IgG2a protein (AcroBiosystems Cat# IGA-M5207) (mouse) [IgG part: P01863]; experiment: indirect ELISA, hybridoma supernatant, coated antigen B at 1 µg/ml
Sequence of Mouse IgG2a protein (AcroBiosystems Cat# IGA-M5207) (mouse) [IgG part: P01863] (P01863 98-330): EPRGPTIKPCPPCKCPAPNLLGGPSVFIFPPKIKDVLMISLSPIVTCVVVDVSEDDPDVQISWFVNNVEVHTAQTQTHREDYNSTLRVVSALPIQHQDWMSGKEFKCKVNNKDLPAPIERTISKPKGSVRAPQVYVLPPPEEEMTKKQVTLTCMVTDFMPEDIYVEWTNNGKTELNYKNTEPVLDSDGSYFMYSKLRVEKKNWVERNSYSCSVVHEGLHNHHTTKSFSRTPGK

Sequence of recombinant human CD70 tagged with mouse IgG2a Fc (AcroBiosystems Cat#CDL-H525a) (human; mouse) (P32970 39-193): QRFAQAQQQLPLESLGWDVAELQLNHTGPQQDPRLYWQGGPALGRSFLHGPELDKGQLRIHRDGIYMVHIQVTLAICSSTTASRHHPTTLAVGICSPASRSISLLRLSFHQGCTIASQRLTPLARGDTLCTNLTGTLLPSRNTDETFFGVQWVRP

OD 450 [1]	OD 450 [2]	Binder
2.12 OD 450	0.154 OD 450	16D7C8 (antibody, IgG3, V domains shown) VH: QVQLQQSGPELVKPGASVRISCKASGYTFTSFYIHWVKQRPGQGLEWIGWISPINININYNEKFKGKATLTADKSSSTVYMQLSSLTSEDSAVYFCEGTSENFDVWGAGTTVTVSS VL: DVLMTQIPLSLPVSLGDQASISCRSTQNIVHSNGNTYLEWYLQKPGQSPKLLIYKVSNRFSGVPDRFRGSGSGTEFTLKITRVEADDLGVYYCFQGSHVPFTFGAGTKLELK
1.97 OD 450	0.146 OD 450	18F8A8 (antibody, IgG1, V domains shown) VH: QVTLKESGPGILQPSQTLSLTCSFSGFSLSTSNMGVAWIRQPLGKGLEWLLYILWNDTKYYNPALKSRLSISKDTYNNQVFLKIVNVDTADTATYYCARIRRDYALDYWGQGTSVTVSS VL: DIVMSQSPSSLAVSVGEKVTMNCKSSQSLLYSNNQKNYLAWYQQKPGQSPKLLIYWASTRESGVPDRFTGSGSGTDFTLTISSVKAEDLAVYYCQQYYIYPLAFGGGTKLEIK
1.85 OD 450	0.134 OD 450	19H7E4 (antibody, IgG1, V domains shown) VH: QVTLKESGPGILQPSQTLSLTCSFSGFSLSTSNVGVGWIRQPSGKGLEWLLHILWNDGKYYNPALKSRLTISKDTSTNQVFLKIADVDTADSATYYCARLRRDYGMDYWGQGTSVTVSS VL: DIVMSQSPSSLAVSVGEKVTMSCKSSQSLLYSYNQKNYLAWYQQKPGQSPKLLIYWASTRESGVPDRFTGSGSGTDFTLTISSVKAEDLAVYYCQQYYTYPYAFGGGTKLEIK
2.51 OD 450	0.121 OD 450	4E6G9 (antibody, V domains shown) VH: QIQLVQSGPELKKAGETVKISCKASGYTFAAYSMHWVKQAPGKGLKWMGWINTETGEPTYADDFKGRFAFSLETSASTAYLQINNLKNEDTATYFCTRDDYDGGRFSYWYFAVWGAGTTVTVSS VL: DIQMTQSPSSLSASLGGKVTITCKASQDINKYIAWYQHRPGKGPRLLIRYTSTLQPGIPSRFSGSGSGRDYSFSINNLEPEDIATYYCLQYDNLLTFGGGTKLEIK
1.87 OD 450	0.115 OD 450	3H11D12E7 (antibody, V domains shown) VH: QIQLVQSGPELKKPGETVKISCKASGYTFTDYSMHWVKQAPGKGLKWMGWINTETGEPTYADDFKGRFAFSLETSASTAYLQINNLKNDDTATYFCARSFYRYDWYFDVWGAGTTVTVSS VL: QIVLTQSPAIMSASPGEKVTITCSASSSVSFMHWFQQKPGTSPKLWIYSTSNLASGVPARFSGSGSGTSYSLTISRMEAEDAATYYCQQRTSFPPTFGGGTNLEIK
1.01 OD 450	0.107 OD 450	11E12E8 (antibody, IgG1, V domains shown) VH: DVQLVESGGGLVQPGGSRKLSCAASGFTFSRFGMNWVRQAPEKGLEWVAYISSGSGDIYYADTVKGRFTISRDNPKNTLFLQMTSLRSEDTAMYYCAVTWFAYWGQGTLVTVSA VL: QAVVTQEPALTTSPGETVTLTCRSSTGAVTTSNYANWVQEKPDHLFTGLIGGTNNRAPGVPARFSGSLIGDKAALTITGAQTEDEAIYFCVLWYSNHFIFGSGTKVTVL
